Assay results taken from patent US20070054846A1, “Bcl-w structure and uses therefor” (priority 2002, published 2007).

Key:
Format in all cases: binding
[1] = target: T1, full-length Bcl-xL (Homo sapiens, UniProt Q07817); experiment: Co-immunoprecipitation from cell extracts; conditions: FLAG-tagged full-length Bcl-xL
T1 construct: FLAG-tagged full-length Bcl-xL or a C-terminally truncated mutant (ΔC24); expressed in transfected cells
Text: (§1) Bcl-xL and Bcl-2 also contain hydrophobic residues at their C-termini, similar to those found in Bcl-w (FIG. 1C), yet the low level of sequence identity following α8 and the absence of 3D-structural information, makes prediction of their conformation difficult. Since BCl-xL, like Bcl-w, is only partially membrane-bound in healthy cells (Hsu et al., 1997), we compared the ability of FLAG-tagged full-length Bcl-xL or a C-terminally truncated mutant (ΔC24) to bind to BimL or the […]L94A B3 mutant.
Cell culture, stable transfections into FDC-P1, transient transfections into 293T human embryonic kidney cells, metabolic labelling with ^35S-methionine/cysteine (NEN) and co-immunoprecipitation have been previously described (O'Connor et al., 1998, Moriishi et al., 1999; Huang et al., 1998; Wilson-Annan et al., 2003). Briefly, mammalian pEF-based expression vectors for Bcl-w, BCl-xL, Bim, Bmf, Bad and Bik (O'Connor et al., 1998, Huang et al., 1998; Moriishi et al., 1999; Wilson-Annan et al., 2003) were transiently transfected using liposome mediated transfection (Lipofectamine™; Invitrogen). […] The immunoprecipitates were resolved by SDS-PAGE (Novex), transferred onto nitrocellulose membranes (APB) and the proteins detected by fluorography (Amplify; APB).

[2] = target: T2, Bcl-xLΔC24 (Homo sapiens, UniProt Q07817); experiment: Co-immunoprecipitation / GST pull-down; conditions: C-terminally truncated Bcl-xL (ΔC24)
T2 construct: expressed in transfected cells
Text: as §1
Direct interactions between Bcl-w and BimL were monitored using GST pull-down experiments. These were performed in 100 μl of PBS (phosphate buffered saline pH 7.3) containing 2 mM DTT. Typically excess soluble proteins were added to equivalent amounts of resin bound proteins. After incubation at room temperature for 30 minutes the resin was pelleted and then washed twice with 200 μl of PBS containing 0.2% Tween 20. […]
Cell culture, stable transfections into FDC-P1, transient transfections into 293T human embryonic kidney cells, metabolic labelling with ^35S-methionine/cysteine (NEN) and co-immunoprecipitation have been previously described (O'Connor et al., 1998, Moriishi et al., 1999; Huang et al., 1998; Wilson-Annan et al., 2003). […] The immunoprecipitates were resolved by SDS-PAGE (Novex), transferred onto nitrocellulose membranes (APB) and the proteins detected by fluorography (Amplify; APB).

[3] = target: T1, full-length Bcl-xL; experiment: GST pull-down
Text: as §1
Direct interactions between Bcl-w and BimL were monitored using GST pull-down experiments. These were performed in 100 μl of PBS (phosphate buffered saline pH 7.3) containing 2 mM DTT. Typically excess soluble proteins were added to equivalent amounts of resin bound proteins. After incubation at room temperature for 30 minutes the resin was pelleted and then washed twice with 200 μl of PBS containing 0.2% Tween 20. After removal of the second wash 10 μl of SDS-PAGE sample buffer was added to each sample and the samples were boiled then loaded onto 16% polyacrylamide gels that were electrophoresed and stained with Coomassie Blue R250. The staining intensity of the bound soluble protein indicated the strength of the interaction between the two proteins.

T1 sequence (Q07817 whole entry, species assumed, the tested form may be a part): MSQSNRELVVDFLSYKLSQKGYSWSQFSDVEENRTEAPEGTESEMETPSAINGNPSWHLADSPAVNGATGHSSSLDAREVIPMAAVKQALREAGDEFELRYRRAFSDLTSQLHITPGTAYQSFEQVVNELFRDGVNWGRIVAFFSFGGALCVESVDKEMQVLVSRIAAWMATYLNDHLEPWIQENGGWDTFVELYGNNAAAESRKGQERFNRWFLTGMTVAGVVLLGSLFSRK
T2 sequence (Q07817 1-209 limits assumed, stated change not applied): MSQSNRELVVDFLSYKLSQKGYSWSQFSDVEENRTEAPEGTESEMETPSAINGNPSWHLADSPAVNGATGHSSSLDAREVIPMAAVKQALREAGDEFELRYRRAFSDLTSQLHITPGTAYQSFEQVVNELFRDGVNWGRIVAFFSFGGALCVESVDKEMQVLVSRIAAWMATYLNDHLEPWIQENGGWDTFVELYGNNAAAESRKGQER

B1: BimL: Bim isoform BimL, BH3-only protein (protein)
chain: MAKQPSDVSSECDREGGQLQPAERPPQLRPGAPTSLQTEPQDRSPAPMSCDKSTQTPSPPCQAFNHYLSAMASIRQSQEEPEDLRPEIRIAQELRRIGDEFNETYTRRVFANDYREAEDHPQMVILQLLRFIFRLVWRRH
modifications: left off: small tags and cut ends
notes: Bim isoform BimL, BH3-only protein
association in cell extracts [1]: associates only with wild-type BimL | binding [2]: bound wild-type BimL and the L94A mutant equally | association in GST pull-down [3]: more tightly with wild-type BimL
